Source: patent publication US20210319279A1

Target: SBE FLAG9 (three 3xFLAG domains joined by rigid linkers) displayed on the yeast cell wall as a fusion to truncated FLO11 (S. cerevisiae) (UniProt P08640)
Assay: cell-based or functional assay

Sequence of UniProt P08640 (P08640 other isoform, or with tags, fused parts or gaps limits assumed): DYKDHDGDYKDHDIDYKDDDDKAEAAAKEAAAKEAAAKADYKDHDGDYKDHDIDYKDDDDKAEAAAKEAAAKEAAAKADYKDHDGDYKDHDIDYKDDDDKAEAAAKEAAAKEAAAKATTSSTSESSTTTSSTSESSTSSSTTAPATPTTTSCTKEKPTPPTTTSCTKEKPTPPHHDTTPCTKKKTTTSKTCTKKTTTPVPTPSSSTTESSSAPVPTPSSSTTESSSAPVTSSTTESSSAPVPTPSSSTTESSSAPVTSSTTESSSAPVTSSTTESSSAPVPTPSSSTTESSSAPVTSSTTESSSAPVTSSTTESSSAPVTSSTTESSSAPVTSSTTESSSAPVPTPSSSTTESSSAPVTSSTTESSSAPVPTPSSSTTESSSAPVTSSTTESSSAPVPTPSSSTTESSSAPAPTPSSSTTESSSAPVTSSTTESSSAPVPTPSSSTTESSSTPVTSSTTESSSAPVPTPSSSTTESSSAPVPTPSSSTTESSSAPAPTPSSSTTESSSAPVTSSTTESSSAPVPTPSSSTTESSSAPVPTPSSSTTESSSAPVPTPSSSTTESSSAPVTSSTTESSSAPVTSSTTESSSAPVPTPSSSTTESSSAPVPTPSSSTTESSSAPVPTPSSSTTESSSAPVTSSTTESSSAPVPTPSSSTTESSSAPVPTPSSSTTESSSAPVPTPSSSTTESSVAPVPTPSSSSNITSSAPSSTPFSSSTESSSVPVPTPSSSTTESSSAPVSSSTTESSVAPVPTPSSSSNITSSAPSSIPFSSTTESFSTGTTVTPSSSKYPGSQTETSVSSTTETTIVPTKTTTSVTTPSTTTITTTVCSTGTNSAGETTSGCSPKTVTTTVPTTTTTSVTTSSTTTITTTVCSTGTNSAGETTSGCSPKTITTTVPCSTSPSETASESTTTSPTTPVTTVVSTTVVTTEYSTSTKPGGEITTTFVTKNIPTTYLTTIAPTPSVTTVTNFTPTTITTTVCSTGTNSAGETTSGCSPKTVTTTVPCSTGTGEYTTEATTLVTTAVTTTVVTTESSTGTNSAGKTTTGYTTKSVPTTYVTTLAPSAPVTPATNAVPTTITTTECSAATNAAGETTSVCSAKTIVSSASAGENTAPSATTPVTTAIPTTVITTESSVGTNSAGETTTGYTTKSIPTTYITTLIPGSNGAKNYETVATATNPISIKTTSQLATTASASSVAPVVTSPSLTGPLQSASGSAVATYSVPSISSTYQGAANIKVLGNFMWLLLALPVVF

beta-lactamase reporter (nitrocefin-BLA analysis), fold-change against the negative control without beads; PIC assay with sX406, sX216 and regulatory sX437: 2 fold | beta-lactamase reporter, fold-change against the negative control; OR operation, Experiment A (BaF beads only): 3 to 4 fold | nitrocefin hydrolysis readout (image intensity), fold-increase against negative controls at 6 hrs; PIC assay with immobilization, strains sX384 and sX387, BaF beads: 6 to 10 fold
Substance: anti-FLAG M2 antibody (A2220 Sigma-Aldrich), covalently linked to agarose beads
